# Test results from PMC2141752 (The Journal of Cell Biology, 1998).
# B1: α–caveolin-1 (natural protein)
# chain: MSGGKYVDSEGHLYTVPIREQGNIYKPNNKAMAEEMSEKQVYDAHTKEIDLVNRDPKHLNDDVVKIDFEDVIAEPEGTHSFDGIWKASFTTFTVTKYWFYRLLSALFGIPMALIWGIYFAILSFLHIWAVVPCIKSFLIEIQCISRVYSIYVHTFCDPFFEAVGKIFSNIRINMQKET
# B2: β–caveolin-1 (natural protein)
# chain: MAEEMSEKQVYDAHTKEIDLVNRDPKHLNDDVVKIDFEDVIAEPEGTHSFDGIWKASFTTFTVTKYWFYRLLSALFGIPMALIWGIYFAILSFLHIWAVVPCIKSFLIEIQCISRVYSIYVHTFCDPFFEAVGKIFSNIRINMQKET
# B3: canine caveolin-2 (natural protein)
# chain: MGLETEKADVQLCMDDDAYSRHSAVDFGDLEQLADSGSDRDPRRLNSHLQVGFEDVIAEPVSTHSFDKVWICSHALFEVSKYVIYKFLTLLLAMPMAFAAGVLFATLSCLHIWIIMPFVKTCLMVLPSVQTIWKSVTDAVIAPLCSSVGRSFSSVSLQVSHD
# modifications: phosphorylated at steady state (sites not given)
# Columns and labels:
# canine caveolin-2 = target: B3; assay: co-IP
# α–caveolin-1 = target: B1; assay: co-IP
Binder,ratio in the immunoprecipitate (canine caveolin-2),ratio in the immunoprecipitate (α–caveolin-1)
B1,~1 α–caveolin-1 per caveolin-2,–
B2,~1 β–caveolin-1 per caveolin-2,~1 β–caveolin-1 per α–caveolin-1
B3,–,~0.5 caveolin-2 per α–caveolin-1
